Values quoted from earlier work, collected in paper PMC6524963.
Where two headings read alike, the source gives them in different places.

Key:
Ran (Homo sapiens) [1] = target: Ran (Homo sapiens) (UniProt P62826)
Ran (Homo sapiens) [2] = target: Ran (Homo sapiens) (UniProt P62826); remark: listed apart in the source

Kd (Ran (Homo sapiens) [1]): 10 µM
Kd (Ran (Homo sapiens) [2]): 0.001 µM
Substance: RanBP1/RanBP2 RBD RBD (from UniProt P43487)
